{"source": "paper PMC3689434", "about": "(Biochemistry, 2013)", "proteins": {"B1": {"name": "full-length Mycobacterium smegmatis polynucleotide phosphorylase (PNPase) (enzyme, UniProt A0QVQ5 1-763, looked up)", "chain": "MSVVELEDGVYESTAVIDNGSFGTRTIRFETGRLAQQAAGSAVAYLDDETMLLSATTASKNPKDHFDFFPLTVDVEERMYAAGRIPGSFFRREGRPSTDAILTCRLIDRPLRPSFVDGLRNEIQVVVTVMSLDPKDLYDVLAINAASMSTQLAGLPFSGPVGGARIALIDGTWVAFPTVEQLERAVFDMVVAGRIVGDGDSADVAIMMVEAEATENVVELVAGGAQAPTEAVVAEGLEAAKPFIKALCAAQQELADRAAKPAGEYPVFPDYEADVYDAVASVATEALAEALTIAGKTERNDRTDEIKVEVLERLAEPYAGREKEIGAAFRSLTKKLVRQRILTDHFRIDGRGITDIRALSAEVAVIPRAHGSALFERGETQILGVTTLDMIKMAQQIDSLGPENTKRYMHHYNFPPYSTGETGRVGSPKRREIGHGALAERALVPVLPSIEEFPYAIRQVSEALGSNGSTSMGSVCASTLALLNAGVPLKAPVAGIAMGLVSDDVDVDGKVEKRYVALTDILGAEDAFGDMDFKVAGTKDFVTALQLDTKLDGIPSQVLAGALSQAKDARLTILDVMAEAIDRPDEMSPYAPRITTIKVPVDKIGEVIGPKGKMINSITEETGAQISIEDDGTVFVGAADGLSAQAAIDKINAIANPQLPKVGERFLGTVVKTTDFGAFVSLLPGRDGLVHISKLGKGKRIAKVEDVVKVGDKLRVEIADIDNRGKISLVLVAEESAESAESAGDKGAEKAEGAAADVTPAEA"}, "B2": {"name": "M. smegmatis PNPase-(1-656) lacking the S1 domain (domain or fragment, Mycobacterium smegmatis, UniProt A0QVQ5 1-656, looked up)", "chain": "MSVVELEDGVYESTAVIDNGSFGTRTIRFETGRLAQQAAGSAVAYLDDETMLLSATTASKNPKDHFDFFPLTVDVEERMYAAGRIPGSFFRREGRPSTDAILTCRLIDRPLRPSFVDGLRNEIQVVVTVMSLDPKDLYDVLAINAASMSTQLAGLPFSGPVGGARIALIDGTWVAFPTVEQLERAVFDMVVAGRIVGDGDSADVAIMMVEAEATENVVELVAGGAQAPTEAVVAEGLEAAKPFIKALCAAQQELADRAAKPAGEYPVFPDYEADVYDAVASVATEALAEALTIAGKTERNDRTDEIKVEVLERLAEPYAGREKEIGAAFRSLTKKLVRQRILTDHFRIDGRGITDIRALSAEVAVIPRAHGSALFERGETQILGVTTLDMIKMAQQIDSLGPENTKRYMHHYNFPPYSTGETGRVGSPKRREIGHGALAERALVPVLPSIEEFPYAIRQVSEALGSNGSTSMGSVCASTLALLNAGVPLKAPVAGIAMGLVSDDVDVDGKVEKRYVALTDILGAEDAFGDMDFKVAGTKDFVTALQLDTKLDGIPSQVLAGALSQAKDARLTILDVMAEAIDRPDEMSPYAPRITTIKVPVDKIGEVIGPKGKMINSITEETGAQISIEDDGTVFVGAADGLSAQAAIDKINAIAN"}, "B3": {"name": "M. smegmatis PNPase-(1-591) lacking the KH and S1 domains (domain or fragment, Mycobacterium smegmatis, UniProt A0QVQ5 1-591, looked up)", "chain": "MSVVELEDGVYESTAVIDNGSFGTRTIRFETGRLAQQAAGSAVAYLDDETMLLSATTASKNPKDHFDFFPLTVDVEERMYAAGRIPGSFFRREGRPSTDAILTCRLIDRPLRPSFVDGLRNEIQVVVTVMSLDPKDLYDVLAINAASMSTQLAGLPFSGPVGGARIALIDGTWVAFPTVEQLERAVFDMVVAGRIVGDGDSADVAIMMVEAEATENVVELVAGGAQAPTEAVVAEGLEAAKPFIKALCAAQQELADRAAKPAGEYPVFPDYEADVYDAVASVATEALAEALTIAGKTERNDRTDEIKVEVLERLAEPYAGREKEIGAAFRSLTKKLVRQRILTDHFRIDGRGITDIRALSAEVAVIPRAHGSALFERGETQILGVTTLDMIKMAQQIDSLGPENTKRYMHHYNFPPYSTGETGRVGSPKRREIGHGALAERALVPVLPSIEEFPYAIRQVSEALGSNGSTSMGSVCASTLALLNAGVPLKAPVAGIAMGLVSDDVDVDGKVEKRYVALTDILGAEDAFGDMDFKVAGTKDFVTALQLDTKLDGIPSQVLAGALSQAKDARLTILDVMAEAIDRPDEMSPYA"}}, "key": {"[1]": {"target": "the molecule itself", "assay": "zonal velocity sedimentation in a glycerol gradient"}, "[2]": {"target": "the molecule itself", "assay": "zonal velocity sedimentation in a glycerol gradient", "remark": "listed apart in the source"}}, "note": "Read-outs that look alike come from different tables or passages of the source."}
{"protein": "B1", "values": [{"measurement": "stoichiometry N", "setting": "[1]", "result": 3}]}
{"protein": "B2", "values": [{"measurement": "stoichiometry N", "setting": "[2]", "result": "1 to 3"}]}
{"protein": "B3", "values": [{"measurement": "binding result", "setting": "[2]", "result": "binds"}]}
